# From publication PMC8635433 (Science Advances, 2021)
# Molecular target: coxsackie and adenovirus receptor (CAR), immobilised for SPR (UniProt P78310 20-365)
# Assay: SPR; BIAcore T200; about 2000 RU of CAR, DSG2 and CD46 amine-coupled to a CM5 chip; fiber knob proteins flowed over, 1:2 serial dilutions; 25°C, PBS with 0.001% P20, 30 μl/min; 1:1 interaction model
# Conditions: both partners purified
# Chain of coxsackie and adenovirus receptor (CAR), immobilised for SPR (P78310 20-365): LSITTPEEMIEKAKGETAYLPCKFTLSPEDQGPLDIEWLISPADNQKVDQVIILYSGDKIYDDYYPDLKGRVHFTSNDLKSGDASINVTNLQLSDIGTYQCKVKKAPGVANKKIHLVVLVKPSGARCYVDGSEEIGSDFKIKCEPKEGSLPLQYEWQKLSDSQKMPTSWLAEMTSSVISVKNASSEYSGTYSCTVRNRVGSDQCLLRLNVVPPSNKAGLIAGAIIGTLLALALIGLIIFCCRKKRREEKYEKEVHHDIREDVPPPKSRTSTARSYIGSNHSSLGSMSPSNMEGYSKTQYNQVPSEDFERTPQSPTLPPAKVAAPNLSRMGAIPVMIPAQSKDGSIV
binder,measurement,value
"HAdV-C5 fiber knob protein (domain or fragment, source: recombinant soluble knob protein, purified) TGAITVGNKNNDKLTLWTTPAPSPNCRLNAEKDAKLTLVLTKCGSQILATVSVLAVKGSLAPISGTVQSAHLIIRFDENGVLLNNSFLDPEYWNFRNGDLTEGTAYTNAVGFMPNLSAYPKSHGKTAKSNIVSQVYLNGDKTKPVTLTITLNGTQETGDTTPSAYSMSFSWDWSGHNYINEIFATSSYTFSYIAQE",Kd,0.06 nM
